{"source": "patent US20250136720A1", "about": "(Boehringer Ingelheim, published 2025)", "binders": {"B1": {"name": "FAP.65.F1 (Fc fusion)", "VH": "DVQLVESGGGLVHPGGSLRLSCAASTFTFANYIMSWVRQAPGKGLEWVSGITGSSTNTYYTDSVKGRFTISRDNSKNTLYLEMNSLRAEDTAVYYCAKHQLYPYYAMDVWGQGTTVTVSS", "VL": "EIVLTQSPGSLSLSPGERATLSCRASQPIDSYLAWYQQKPGQAPRLLIYGASTRATDIPDRFSGSGSGTEFTLTISSLQSEDFAVYYCQQYYDWPPVTFGGGTKVEIK", "notes": "Tested as scFv-Fc; orientation, linker and Fc of this construct not specified"}, "B2": {"name": "FAP.63.G3 (Fc fusion)", "VH": "DVQLVESGGGVVRPGESLTLSCAASGFTFSNYDMGWVRQAPGEGLEWVSGIRGRGGSTYYADSVKGRFTISRDSSKNTLYLQMNSLRAEDTAVYYCAKENNRHSFFEYWGLGTLVTVSS", "VL": "EIVLTQSPGTLSLSPGERATLSCRASQSVGHYLAWYQQKPGQAPRLLIYDASNRAIDIPDRFSGSGSGTEFTLTISRLEPEDFAVYYCQQYYNNWPPLTFGGGTKVEIK", "notes": "Tested as scFv-Fc; orientation, linker and Fc not specified; also called FAP.63.C3; FAP 63.C3"}, "B3": {"name": "FAP.63.H3 (Fc fusion)", "VH": "not shown", "VL": "B2 VL with H31Y, N53D, I56T, D57A", "notes": "as for B1"}, "B4": {"name": "FAP.63.D7 (Fc fusion)", "VH": "DVQLVESGGGVVRPGESLRLSCAASGFTFSSYAMSWVRQTPGEGLEWVSFISSGGAYTHYTDSVKGRFTISRDNSKNTLYLQMNSLRAEDTAVYYCAKEKEIWNAFFDYWGLGTLVTVSS", "VL": "EIVLTQSPATLNLSPGDRATLTCRASQTVGSKLAWYQQTSGQAPRLLIYDASSRATGIPDRFSGSGSGTEFTLTISSLEPEDFAVYVCQQYYDWPPLTFGGGTKVEIK", "notes": "as for B1"}, "B5": {"name": "FAP.84.A11 (Fc fusion)", "VH": "DVQLVESGGGLVQPGGSLRLSCAASGFSMSNFAMTWVRQAPGEGLEWVSGIRGSGTTYYADSVKGRFTVSRDNSKNTLYLQMNSLRAEDTAIYYCAKTWGTEYFDYWGLGTLVTVSS", "VL": "B1 VL with S10T, D30N, S31N, Y49F, G50S, T53N, D57G, Q79E, S80P, V97Y", "notes": "as for B1"}, "B6": {"name": "FAP.84.B2 (Fc fusion)", "VH": "DVQLVESGGGVVRPGESLRLSCAASGFSFSSYAMNWVRQAPGKGLEWVSAISGSGGGTFYADSVKGRFTISRDNSKNTLYLQMNSLRAEDTAIYYCAKDPFGYGFFDSWGLGTLVTVSS", "VL": "EIVMTQSPATLSVSPGDRATLSCRASQTVGSKLAWYQQKPGQAPRLLIYAASSRATGIPDRFSGSGSGTDFTLTISSLEPEDFAVYYCQQYYNWPPAFGGGTKVEIK", "notes": "as for B1"}, "B7": {"name": "FAP.84.B7 (Fc fusion)", "VH": "DVQLVESGGGVVRPGESLRLSCAASGFIFRNYAMTWVRQAPGEGLEWVSTIRSSGSGRTDTYYADSVKGRFTISRDSSNNTLYLQMNSLRAEDTAVYYCAKSGTFWDTFFDYWGLGTLVTVSS", "VL": "EIVLTQNPGTLNLSPGERATLTCRASQSAGRNLAWYQQKPGQTPRLLIYDVNTRATGIPDRFSGSGSGTEFNLTISSLQNEDFAVYYCQQYNNWPPLTFGGGTKVEIK", "notes": "as for B1"}, "B8": {"name": "FAP.84.B8 (Fc fusion)", "VH": "DVQLVESGGSVVRPGESLRLSCAASGFPFSSYPMTWVRQAPGEGLEWVSSIRGSGDRIHYADSVKGRFTISKDSSNNTLYLQMNSLRAEDTAVYYCATGWNFFDYWGLGTLVTVSS", "VL": "EIVLTQSPGTLSLSPGERATLSCRASQTVATYLAWYQQKPGQAPRLLIYAAISRATGIPDRFSGSGSGTDFTLTITRLEPEDSAVYYCQQYKDWPPLTFGGGTKVEIK", "notes": "as for B1"}, "B9": {"name": "FAP.84.A9 (Fc fusion)", "VH": "B8 VH with S10G, E16G, G53P, S54I, K72R", "VL": "B8 VL with S22T, S63I, T76N, S83F", "notes": "as for B1"}, "B10": {"name": "FAP.84.C11 (Fc fusion)", "VH": "not shown", "VL": "B1 VL with S10T, T20I, P28T, I29V, D30G, Y32R, G50A, T53S, D57G, V97L", "notes": "as for B1"}, "B11": {"name": "FAP-A11 parental (scFv)", "scFv": "EIVLTQSPGTLSLSPGERATLSCRASQPINNYLAWYQQKPGQAPRLLIFSASNRATGIPDRFSGSGSGTEFTLTISSLEPEDFAVYYCQQYYDWPPYTFGGGTKVEIKGGGGSGGGGSGGGGSGGGGSDVQLVESGGGLVQPGGSLRLSCAASGFSMSNFAMTWVRQAPGEGLEWVSGIRGSGTTYYADSVKGRFTVSRDNSKNTLYLQMNSLRAEDTAIYYCAKTWGTEYFDYWGLGTLVTVSS", "notes": "the format in the KD assay is told only as 'SCFV'; also called FAP-A11SCFV(WT); FAP #1"}, "B12": {"name": "FAP-A11 VK3-VH1 (scFv)", "scFv": "B11 scFv with N30R, N31S, D189E", "notes": "also called FAP-A11VK3VH1 (RS, NNN)"}, "B13": {"name": "FAP-A11 VK3-VH13 (FAP #2) (scFv)", "scFv": "B11 scFv with N30R, N31S, D189E, N201Q, N204Q, N211Q", "notes": "format in the KD assay not described; also called FAP-A11VK3VH13 (RS, QQQ); A11 VK3/VH3"}, "B14": {"name": "FAP-A11 VK7-VH1 (FAP #3) (scFv)", "scFv": "B11 scFv with N30S, N31S, D189E", "notes": "format in the KD assay not described; also called FAP-A11VK7VH1 (SS, NNN)"}, "B15": {"name": "FAP-C3 parental (scFv)", "scFv": "EIVLTQSPGTLSLSPGERATLSCRASQSVGHYLAWYQQKPGQAPRLLIYDASNRAIDIPDRFSGSGSGTEFTLTISRLEPEDFAVYYCQQYYNNWPPLTFGGGTKVEIKGGGGSGGGGSGGGGSGGGGSDVQLVESGGGVVRPGESLTLSCAASGFTFSNYDMGWVRQAPGEGLEWVSGIRGRGGSTYYADSVKGRFTISRDSSKNTLYLQMNSLRAEDTAVYYCAKENNRHSFFEYWGLGTLVTVSS", "notes": "the format in the KD assay is told only as 'SCFV'; also called FAP-C3SCFVWT; FAP #4"}, "B16": {"name": "FAP-C3 VK1-VH14 (FAP #5) (scFv)", "scFv": "B15 scFv with N94D, N160S, D191E, D202E, N230E", "notes": "format in the KD assay not described; also called FAP-C3VK1VH14 (ND, SY, ES, ES, ER); FAP-C3-VK1-VH4"}, "B17": {"name": "CD137 #B27 (antibody, human IgG1, V domains shown)", "VH": "QVQLQQSGAELVRPGASVKISCKAFGYTFTNHHINWVKQRPGQGLDWIGYINPYNDYSGYNQKFKGRATLTVDKSSNTAYMELSSLTSEDSAVYYCATPGTWEGYYFDYWGQGTTLTVSS", "VL": "DVVMTQTPLSLPVSLGDQASISCRSSQSLVHSNGNTYLEWYLQKPGQSPKVLIYMVSNRFSGVPDRFSGSGSGTDFTLKISRVEAEDLGVYYCFQGSHIPLTFGAGTKLELK", "notes": "human IgG1 KO (L234A/L235A)/kappa chimeric IgG"}}, "note": "Positions count from the first letter of the chain named. Numbers in names are those of the source."}
{"molecular_target": "T1, Murine Fibroblast Activation Protein (FAP) on B16 cells (mouse, UniProt P97321 1-761)", "T1 construct": "B16 cells transduced with murine FAP cDNA; also called B16-FAP", "T1 sequence (P97321 other isoform, or with tags, fused parts or gaps)": "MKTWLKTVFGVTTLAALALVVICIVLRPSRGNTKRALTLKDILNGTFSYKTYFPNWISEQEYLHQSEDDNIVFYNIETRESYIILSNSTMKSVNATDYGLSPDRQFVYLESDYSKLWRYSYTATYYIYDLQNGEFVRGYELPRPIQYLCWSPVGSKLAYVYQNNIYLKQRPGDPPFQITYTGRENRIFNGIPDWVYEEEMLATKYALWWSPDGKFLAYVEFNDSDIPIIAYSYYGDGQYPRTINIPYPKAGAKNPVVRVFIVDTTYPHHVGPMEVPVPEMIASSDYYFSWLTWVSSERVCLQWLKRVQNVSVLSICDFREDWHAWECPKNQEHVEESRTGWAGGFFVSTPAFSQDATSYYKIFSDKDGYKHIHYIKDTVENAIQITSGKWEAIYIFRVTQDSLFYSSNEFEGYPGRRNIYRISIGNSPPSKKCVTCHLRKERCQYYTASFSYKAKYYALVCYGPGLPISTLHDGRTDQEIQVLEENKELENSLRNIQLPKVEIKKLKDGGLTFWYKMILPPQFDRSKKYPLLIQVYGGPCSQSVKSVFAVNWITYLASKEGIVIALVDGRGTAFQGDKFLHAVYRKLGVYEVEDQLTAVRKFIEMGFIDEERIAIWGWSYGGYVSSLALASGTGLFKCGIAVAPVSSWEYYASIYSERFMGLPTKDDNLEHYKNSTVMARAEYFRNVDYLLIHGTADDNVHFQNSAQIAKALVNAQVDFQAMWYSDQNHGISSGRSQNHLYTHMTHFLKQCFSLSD", "assay": "flow cytometry, scFv-Fc on B16-FAP cells", "units": {"MFI": "MFI"}}
{"binder": "B1", "MFI": 1840}
{"binder": "B2", "MFI": 1410}
{"binder": "B3", "MFI": 2830}
{"binder": "B4", "MFI": 3360}
{"binder": "B5", "MFI": 1410}
{"binder": "B6", "MFI": 2260}
{"binder": "B7", "MFI": 1610}
{"binder": "B8", "MFI": 1490}
{"binder": "B9", "MFI": 1300}
{"binder": "B10", "MFI": 1430}
{"molecular_target": "T2, Human Fibroblast Activation Protein (FAP) on HT1080 cells (human, UniProt Q12884 1-760)", "T2 construct": "HT1080 cells transduced with human FAP cDNA; also called HT1080-FAP; FAP+ HT1080", "assay": "flow cytometry, scFv-Fc on HT1080-FAP cells", "units": {"MFI": "MFI"}}
{"binder": "B1", "MFI": 35600}
{"binder": "B2", "MFI": 72800}
{"binder": "B3", "MFI": 75000}
{"binder": "B4", "MFI": 49100}
{"binder": "B5", "MFI": 27300}
{"binder": "B6", "MFI": 17300}
{"binder": "B7", "MFI": 24000}
{"binder": "B8", "MFI": 24300}
{"binder": "B9", "MFI": 25400}
{"binder": "B10", "MFI": 27000}
{"molecular_target": "human FAP protein (human, UniProt Q12884 26-760, limits assumed)", "assay": "method not stated", "units": {"Kd": "pM"}}
{"binder": "B11", "Kd": 1040}
{"binder": "B12", "Kd": 199}
{"binder": "B13", "Kd": 538}
{"binder": "B14", "Kd": 1500}
{"binder": "B15", "Kd": 36}
{"binder": "B16", "Kd": 24}
{"molecular_target": "T3, mouse FAP protein (mouse, UniProt P97321 1-761)", "T3 construct": "also called murine FAP", "T3 sequence (P97321 other isoform, or with tags, fused parts or gaps limits assumed, form in doubt)": "as the sequence (P97321 other isoform, or with tags, fused parts or gaps) above", "assay": "method not stated", "units": {"Kd": "pM"}}
{"binder": "B11", "Kd": "< 20"}
{"binder": "B12", "Kd": "< 20"}
{"binder": "B13", "Kd": "< 20"}
{"binder": "B14", "Kd": "< 20"}
{"binder": "B15", "Kd": 33000}
{"binder": "B16", "Kd": 4600}
{"molecular_target": "T4, Human CD137 on Jurkat cells (human, UniProt Q07011 24-255)", "T4 construct": "whole, on cells; also called full-length human CD137-expressing Jurkat cell line; NF-kB-Luc2/4-1BB Jurkat", "assay": "flow cytometry, Jurkat cells;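 note: binding of antibody-containing supernatants to NF-kB-Luc2/4-1BB Jurkat cells, detected by flow cytometry with a PE-labelled anti-human IgG-Fc secondary antibody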"}
{"binder": "B17", "binding result": "binds"}
